In the supplement of paper PMC10567573:
± gives the standard deviation.

Test: protein stability index of a GFP-peptide fusion (GPS, HEK-293T) (PSI 1-6); higher = more stable
[1] = treatment: DMSO, c terminus: a fixed tail appended
[2] = treatment: MLN4924 1 uM, 8 h, c terminus: a fixed tail appended
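Also: 24-mer peptide tiles fused after GFP, lentivirally expressed, FACS-sorted into six equal bins by GFP/DsRed ratio, decoded by Illumina sequencing, PSI is the read-weighted mean bin number.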

Sequence | protein stability index [1] | protein stability index [2] | protein stability index (treatment: DMSO, c terminus: native) | protein stability index (treatment: MLN4924 1 uM, 8 h, c terminus: native)
DDAVRVLREIVHKPGPITLTVAKC [DVL3] | 2.87 ± 0.16 | 2.9 ± 0.17 | – | –
SGEDPTAAAPVAEVPTAAGALTPT [CLPTM1] | 5.42 ± 0.16 | 5.47 ± 0.36 | – | –
DSKPESALGAPSKSPSSPQAAFTQ [TBX5] | 5.18 ± 0.36 | 5.21 ± 0.19 | – | –
TIPASLDLSPLLGFWQLPPPATQN [PLAGL1] | 2.74 ± 0.15 | 2.96 ± 0.32 | – | –
TTPLSPTRLSRLQEKEELRELNDR [LMNB1] | 5.18 ± 0.39 | 5.1 ± 0.18 | – | –
ALKRQLPFRGDEGIFEESFIEERR [SNX12] | 3.8 ± 0.16 | 4.15 ± 0.31 | – | –
YQRVLPLPIFTPAKMGATKEERED [TCAP] | 3.01 ± 0.69 | 3.62 ± 0.78 | – | –
IKDLSVVHSDLSSIVILDNSPGAY [CTDNEP1] | 2.49 ± 0.23 | 2.48 ± 0.3 | – | –
DRGPKGEKGEKGDRAGDASKDILL [SCARA5] | 5.35 ± 0.27 | 4.69 ± 0.49 | – | –
SQSLALKEQNNLKQLEFGLKEAPV [ZNF8] | 4.7 ± 0.24 | 4.44 ± 0.16 | – | –
KPARKRRRRSRKKPSGALGSESYK [EHMT1] | 5.11 ± 0.27 | 5.28 ± 0.14 | – | –
HGVRAKVQPQARKKEMEMRQLQRG [CPN1] | 4.38 ± 0.38 | 4.5 ± 0.25 | – | –
KIYDSPCLPEAEAMFAINADGVGD [RAD51] | 4.71 ± 0.19 | 4.65 ± 0.38 | – | –
HRHTSHLGHAVLPSNARGPILSRS [SPRY1] | 3.69 ± 0.14 | 3.94 ± 0.13 | – | –
VSKVTGWCRDRLLGHREPSAHPVE [TMEM175] | 3.21 ± 0.22 | 3.33 ± 0.099 | – | –
THVTLLITVTQSHLVIQNLFEGMI [CDS1] | 3.09 ± 0.21 | 3.22 ± 0.16 | – | –
ATPGEYSVNICGMNEHPVCSRTWT [SPAG8] | 2.44 ± 0.28 | 2.57 ± 0.39 | – | –
PMMKAAMYSVEITVEKDKVTGETR [PALM] | 4.16 ± 0.33 | 4.29 ± 0.14 | – | –
CEMDWSDKMEAYNIDETCGRHHSQ [TEKT4] | 4.53 ± 0.15 | 4.56 ± 0.13 | – | –
EAEQSLRNLEDIHMSLEKDIAAMT [TEKT4] | 4.58 ± 0.25 | 4.8 ± 0.14 | – | –
KGKLFTWNILKTIALGQMLSLCIC [SLC35F2] | 2.62 ± 0.89 | 2.57 ± 0.57 | – | –
PISQEKIESERALISQCGKPVVNV [DUSP5] | 4.04 ± 0.55 | 3.91 ± 0.23 | – | –

Sequence | protein stability index [1] | protein stability index [2] | protein stability index (treatment: DMSO, c terminus: native) | protein stability index (treatment: MLN4924 1 uM, 8 h, c terminus: native)
ETAGQKPLSVHRPPTSGCLGPVPR [TSPAN10] | 4.25 ± 0.46 | 4.22 ± 0.19 | – | –
AANSYDLAIKAITSSAKVDMTFEE [FKBP8] | 4.28 ± 0.24 | 4.36 ± 0.22 | – | –
AVDFTQEEWGQLDPTQRILYRDVM [ZNF8] | 3.75 ± 0.18 | 3.88 ± 0.35 | – | –
CEETGELFEEPAPQALATRALPCP [FCHSD1] | 4.95 ± 0.2 | 4.9 ± 0.24 | – | –
RKLFGQESGPSAEKYSVATQLFIG [FUNDC2] | 2.61 ± 0.18 | 2.47 ± 0.26 | – | –
LYTPSNEHFGIVPLEAMYMQCPVI [ALG2] | 2.28 ± 0.098 | 2.39 ± 0.35 | – | –
AALSATGPRFLAYFGSFATVGLLW [TMEM175] | 3.01 ± 0.25 | 3.18 ± 0.72 | – | –
VCCNPYHFSRLCGPESPPPPYSRL [SMAD6] | 2.15 ± 0.36 | 2.15 ± 0.18 | – | –
LGNVLFSPICLSTSLSLAQVGAKG [SERPINB5] | 2.48 ± 0.2 | 2.12 ± 0.23 | – | –
ESLIVFMEQVHRGIKGLVRDSHGK [CPXM2] | 2.26 ± 0.58 | 2.13 ± 0.76 | – | –
TEISFILGQEFDEVTADDRKVKST [FABP4] | 4.24 ± 0.43 | 4.43 ± 0.17 | – | –
RSLSACNKRVGMYLEGFDPFNQST [DLC1] | 2.85 ± 0.39 | 2.81 ± 0.5 | – | –
STTDLRGTQFDYERGKGESTEDR [ZSWIM9] | – | – | 5.28 ± 0.34 | 5.43 ± 0.11
LTERLKVLEAKMTMLTVIEQPVPP [EMID1] | 3.09 ± 0.46 | 3.32 ± 0.16 | – | –
FNIGLPDNIVNCNEFLCTLQKKLD [ZNF277] | 2.48 ± 0.32 | 2.51 ± 0.35 | – | –
LGPLLSEPLVLYNQNLSNRPSFNR [MYOZ1] | 2.62 ± 0.13 | 2.95 ± 0.49 | – | –
GSMKIKSSWDIDGRATKRRKKSGD [FBXO34] | – | 4.34 ± 0.81 | – | –
RSSVELELERCRQQAGLLVTGEKE [PPEF2] | 4.74 ± 0.57 | 4.86 ± 0.34 | – | –
FATQTEELNKQVVSSSEQLQSCQA [KRT34] | 4.87 ± 0.28 | 4.86 ± 0.33 | – | –
MTLAYDNGINLFDTAEVYAAGKAE [KCNAB2] | 3.54 ± 0.29 | 3.8 ± 0.34 | – | –
YFKCVQKDIQPYMRRMVATWMLEV [CCND2] | 2.71 ± 0.55 | 2.4 ± 0.45 | – | –
KALTTLCDLADRELVVIIGWAKHI [ESRRG] | 2.83 ± 0.38 | 2.79 ± 0.62 | – | –

Sequence | protein stability index [1] | protein stability index [2] | protein stability index (treatment: DMSO, c terminus: native) | protein stability index (treatment: MLN4924 1 uM, 8 h, c terminus: native)
KGNREDSARMSAGLPGPEAARSGD [PLEKHN1] | 5.41 ± 0.39 | 5.39 ± 0.41 | – | –
ARLFDEPQLASLCLDTIDKSTMDA [BTBD1] | 4.35 ± 0.43 | 4.53 ± 0.17 | – | –
SQVALKIIRNVGKYREAARLEINV [CLK3] | 2.67 ± 0.51 | 2.62 ± 0.54 | – | –
LPLAYQQTSAFARQPRDELERVRV [TMEM175] | 4.01 ± 0.35 | 4.1 ± 0.27 | – | –
LENSKYCRFNQDPEAVDEDRSTEP [ATE1] | 5.5 ± 0.24 | 5.29 ± 0.45 | – | –
TKKKGVKRPARLHTKPSQAPAVEV [NOP53] | 4.36 ± 0.2 | 4.411 ± 0.021 | – | –
CLECGKSFCHGSSLKRHLKTHTGE [ZNF449] | 4.78 ± 0.16 | 5.273 ± 0.015 | – | –
ILHTAWHPSENIIAVAATNNLYIF [PPP2R2B] | 3.17 ± 0.04 | – | – | –
SWMCTRSGNMLGRHFFTSWASCLQ [WDFY1] | 1.86 ± 0.32 | 2.33 ± 0.22 | – | –
RWGYVAMKFAQVFGCFFYVYYIFE [SOAT1] | 3.17 ± 0.22 | 3.18 ± 0.39 | – | –
VSGDYYPIIYFNDYWNLQKDYYPI [CLPTM1] | 3.03 ± 0.64 | 3.1 ± 0.87 | – | –
MAGGKAGKDSGKAKAKAVSRSQRA [H2AZ2] | 4.73 ± 0.24 | 5.03 ± 0.25 | – | –
RVYFLKGGYETFYSEYPECCVDVK [DUSP5] | 2.09 ± 0.23 | 2.46 ± 0.55 | – | –
SDDDEEEEENIGCEEKAKKNANRP [ACBD3] | 5.42 ± 0.28 | 5.49 ± 0.38 | – | –
SLGLDHCHSFISGTAPLNQETAEF [ACSBG2] | 4.18 ± 0.21 | 4.06 ± 0.16 | – | –
MAEAEGVPTTPGPASGSTFRGRRD [RETREG3] | 5.12 ± 0.39 | 5.22 ± 0.14 | – | –
TKHIHITQATETTTTRHKRTANPS [CLINT1] | 4.6 ± 0.19 | 4.77 ± 0.13 | – | –
HGEADRSTLKKALPTLSHIQEAQS [YJU2B] | 4.81 ± 0.3 | 4.7 ± 0.21 | – | –
QQPPRLLIVHIALPSWADICTNLC [M1AP] | 3 ± 0.3 | 2.74 ± 0.51 | – | –
KSFSMAKGLNARMMRGLSYSLTTS [RAB40A] | 2.35 ± 0.13 | 2.56 ± 0.25 | – | –
VHPTKHEVHFLHEESILERVQQHI [MLH1] | 3.18 ± 0.16 | 3.28 ± 0.15 | – | –
